Assay results published in patent publication US20230226096A1 (Orna Therapeutics, Inc., priority 2020, published 2023).

B1: HAV HM175 (nucleic acid)
DNA: CGCCGTTTGCCTAGGCTATAGGCTAAATTTTCCCTTTCCCTTTTCCCTTTCCTATTCCCTTTGTTTTGCTTGTAAATATTGATTTGTAAATATTGATTCCTGCAGGTTCAGGGTTCTTAAATCTGTTTCTCTATAAGAACACTCATTTCACGCTTTCTGTCTTCTTTCTTCCAGGGCTCTCCCCTTGCCCTAGGCTCTGGCCGTTGCGCCCGGCGGGGTCAACTCCATGATTAGCATGGAGCTGTAGGAGTCTAAATTGGGGACACAGATGTTTGGAACGTCACCTTGCAGTGTTAACTTGGCTTTCATGAATCTCTTTGATCTTCCACAAGGGGTAGGCTACGGGTGAAACCTCTTAGGCTAATACTTCTATGAAGAGATGCCTTGGATAGGGTAACAGCGGCGGATATTGGTGAGTTGTTAAGACAAAAACCATTCAACGCCGGAGGACTGACTCTCATCCAGTGGATGCATTGAGTGGATTGACTGTCGGGGCTGTCTTTAGGCTTAATTCCAGACCTCTCTGTGCTTGGGGCAAACATCATTTGGCCTTAAATGGGATTCTGTGAGAGGGGATCCCTCCATTGCCAGCTGGACTGTTCTTTGGGGCCTTATGTGGTGTTTGCCGCTGAGGTACTCAGGGGCATTTAGGTTTTTCCTCATTCTTAAATAATA
modifications: Hepatovirus A
B2: Parechovirus F (nucleic acid)
DNA: GGTCGGGGAGATGTGTTCATGATCGGTTAACACCATCATGGATCATCTCTCCCCGACCTCTTTTTGACCCAGCTATGGGTTAAATAGTACTTTTCTTTTCTCTTTTGCTTTCTTTTGTGTTTTGTTTGTTTTGCAACATATAACAAGCATTTTATCAGTATTAGTGTCTGCAACTGTATAACAAGCAAGGTGGAGCAATCATGCGAGTATATCTCAATTGAATTGTGACACACAAGTGTGCACTATGTGGAATAAATGCCATTTTGGCCAAACCTGGTTAGCCAGACCAGTAGTAGGACAATTTGGCACCCTTAGTGGGCGCGACCTAGATGCTAGGGATGAGCAAACCTATTTCCCCTGAGTACAGGGGCTCTCCTTCACCTCTACATTTTGGACCTCTTTTTGAGTATCCTCGATAGAAGGTGAAGTGACGGTGTACCGGATGGTTAATTGATCTCATTGCTGGGTGACAGCCCGCTAGGACCAGGCAGCATCTTTGTATGGACCTGTACATGTAAC
modifications: Parechovirus F
B3: Parechovirus D (nucleic acid)
DNA: ACATGGGGCAGGTGTGCTGTGCCAAGAGCAACACTACGGTGGCCGAGCCGATGGTTCGTCACCACGTAGTAGGACTCCGTAGTGCTTGGTTACGGCGGACGTAAGTCAGTTGAGTGATGTCTAAGTGGCAAACCATGAGTACATGGTAACCTTGTGTGGACTCGCGGGACGGAATTTCCTATCCCATTGACTCCTTGTAGCAAGGTGGGTATACCCAACCACAATGGCAGCACCCTGGGTGGGAACCCAGGGGCCTGGATTAGTATCCAGTCACACAGCCTGATAGGGTGGCGGCTCAGCCACTGACCAGCGTCTCTAAATAATTGTGAGCTGTTCATGCACC
modifications: Parechovirus D
B4: Parechovirus C (nucleic acid)
DNA: CGGTCATCCCCCTTTCCCCACAGCCGGTGTGGGTTCTAATCGGCTCCTACTAAACACCTAAGCATCACTGCGCCTCTATCTCTCCTATCCACAGGTCTAAGACGCTTGGAATAAGACATGTGGGTGCAATAGGAAGATTAGCTAGTCCAATCTCTCCTTCCAGCTACGCTTCTCCCTTCGATGAGCGTAGGGGGGGCCCCCACCTCCCTCATCTCTGGATAGGGCTCTTGCTACGGGGCTTTCCCGTCTGGACCAGCAGGCCCACTGGTGCGCTTCCATTCAAGTTTAGTGTGCATTACTGTCTGAAATATTGCTTTGCTAGGATCTAGTGTAGCGACCTGCATATTGCCAGCGGACTTCCCCACATGGTAACATGTGCCTCTGGGCCCAAAAGGCATGTCTTTGACCGTATGCAGTACAACCCCAGTATAGGTCCTTTCTATGGCAGTATGGATCTCAGTGATGAGTCTATACAGAATATGGAAGTGGTTCGGATATGTCAGCCCGAAGGATGCCCAGAAGGTACCCGCAGATAACCTTAAGAGACTGTGGATCTGATCTGGGGCCCACCACCTTCGGGTGGGTAGAAGCTAACCATGCCTTGGGTTAAAAAACGTCTAAGGGCTGACCAGACCCGGGGGATCCGGGTTTTCCCTATCTTGACCTACTCTAATC
modifications: Parechovirus C
B5: Ljungan Virus 87-012 (nucleic acid)
DNA: CTCATTGCCCACACCTGGTTGGTTCCCAGGTTCATACAATAACCATCAATAAACTTTTAACATCTAAGATAGTATTATCCCATACTAGACTGGACGAAGCCGCTTGGAATAAGTCTAGTCTTATCTTGTATGTGTCCTGCACTGAACTTGTTTCTGTCTCTGGAGTGCTCTACACTTCAGTAGGGGCTGTACCCGGGCGGTCCCACTCTTCACAGGAATCTGCACAGGTGGCTTTCACCTCTGGACAGTGCATTCCACACCCGCTCCACGGTAGAAGATGATGTGTGTCTTTGCTTGTGAAAAGCTTGTGAAAATCGTGTGTAGGCGTAGCGGCTACTTGAGTGCCAGCGGATTACCCCTAGTGGTAACACTAGCCTCTGGGCCCAAAAGGCATGTCATTTGACCACTCAGGTACACAACCCCAGTGATGCACACGCTTAGTAATGGCTTAGTAACAAACATTGATTGATCATTTGAAAGCTGTTAGGAGGTTTAGGTATGACGGGCTGAAGGATGCCCTGAAGGTACCCATAGGTAACCTTAAGCGACTATGGATCTGATCAGGGGCCCACCATGTAACACATGGGTAGAAGTCTTCGGACCTTGGGTTAAAAAACGTCTAGGCCCGCCCCCCACAGGGATGTGGGGTTTCCCTTATAACCCCAATATTGTATA
B6: Parechovirus A2 (nucleic acid, listed as Parechovirus sp.)
DNA: GCCGTCGGGCCTTACACCCCGACTTGCTGAGTTTCTCTAGGAGAGTCCCTTTCCCAGCCAGAGGTGGCTGGTCAAACAATACCAAACGTAACTAAACATCTAAGATAACATAGCCCTATGCCTGGTCTCCACCAGTTGAAGGCATCTTGCAATAAAATGGGTGGATTAAGACGCTTAAAGCATGGAGTCAATTATCTTTTCTAACTAGTGATCTTCACTGGGTGGCAGATGGCGTGCCATAACTCTATTAGTGGGATACCACGCTCGTGGATCTTATGCCCACACAGCCATCCTCTAGTAAGTTTGCAAGGTGTCTGATGAGGCGTGGGAACTTATTGGAAATAATTACTTGCTGCGAAGCATCCTACTGCCAGCGGATCAACACCTGGTAACAGGTGCCCCTGGGGCCAAAAGCCACGGTTTAACAGACCCTTTAGGATTGGTTAAAACCTGAGTAATTATGGAAGATACTTAGTACCTACCAACTTGGTAACAGTGCAAACACTAGTTGTAAGGCCCACGAAGGATGCCCAGAAGGTACCCGCAGGTAACAAGAGACACTGTGGATCTGATCTGGGGCCACCTACCTCTATCCTGGTGAGGTGGTTAAAAAACGTCTAGTGGGCCAAACCCAGGGGGGATCCCTGGTTTCCTTATTTTAGTGTAAATGTCATT
B7: Parechovirus A3 (nucleic acid, listed as Parechovirus sp.)
DNA: AGAGTCCTTTTCCCAGCCAGAGGTGGCTGGTTAAATAATACCTACTGTAACAAAACATCTAAGATGTAACAACCACACACCTGGTCTCCACTGGCCGAAGGCAACTAGCAATAAGGCAGGTGGGTTCAGACGCTTAAAGTGTGTTGTACATATTCTTTTCTAACCTGTGTTTTACACAGGGTGGCAGATGGCGTGCCATAACTCTAACAGTGAGATACCACGCTTGTGGACCTTATGCTCACACAGCCATCCTCTAGTAAGTTTGTAAGATGTCTGATGACGTGTGGGAACCTGTTGGAGATAACAGTTTGCTGCAAAGCATCCCACTGCCAGCGGATCTACATCTGGTAACAGATGCCTCTGGGGCCAAAAGCCAAGGTTTAACAGACCCTTTGGGATTGGTTCAAACCTGAACTGTTATGGAAGACATTTAGTACCTGCTGATTTGGTAGTAATGCAAACACTAGTTGTAAGGCCCACGAAGGATGCCCAGAAGGTACCCGTAGGTAACAAGTGGCACTATGGATCTGATCTGGGGCCAGCTACCTCTATCTTGGTGAGTTGGTTAAAAAACGTCTAGTGGGCCAAACCCAGGGGGGATCCTGGTTTCTTTTTAATTTAAGTAATCACT
B8: Parechovirus A8 (nucleic acid, listed as Parechovirus sp.)
DNA: GGGCCTTATACCCCGACTTGCTGAGTTTCTCTAGGAGAGTCCCTTTCCCAGCCCTGAGGCGGCTGGATAATAAAGGCCTCACATGTAACAAACATCTAAGACAAAATAATTTGCCTTGCACCTGGTCCCCACTAGTTGAAGGCATCTAGCAATAAGATGAGTGGAACAAGGACGCTTAAAGTGCAATGATAGTTATCTTTTCTAACCCACTATTTATAGTGGGGTGGTGGATGGCGCACCATAATTCTAATAGTGAGATACCACGCTTGTGGACCTTATGCTCACACAGCCATCCTCTAGTAAGTTTGTGAGACGTCTGGTGACGTGTGGGAACTTACTGGAAACAATGCTTTGCCGTAAGGCTTTCATTAGCCAGCGGACCACCACCTGGTAACAGGTGCCTCTGGGGCCAAAAGCCAAGGTTTAATAGACCCTAATGGAATGGTTCAAACCTGGAGCATTGTGGAAAGTACTTAGTACCTGCTGATCTGGTAGTAATGCAAACACTAGTTGTACGGCCCACGAAGGATGCCCAGAAGGTACCCGTAGGTAACAAGTGACACTATGGATCTGATCTGGGGCCAACTACCTCTATCTTGGTGAGTTGGTTAAAAAACGTCTAGTGGGCCAAACCCAGGGGGGATCCCTGGTTTCCTTTTATTTTACTTTGTCAAT
B9: Parechovirus A17 (nucleic acid, listed as Parechovirus sp.)
DNA: CTCTATTAGTGAGATACCACGCTTGTGGACCTTATGCTCACACAGCCATCCTCTAGTAAGTTTGTAAGACGTCTGGTGACGTGTGGGAACTTGTGGGAATCAATATTTTGCTTTAAAGCATCCATTAGCCAGCGGATAAAACACCTGGTAACAGGTGCCTCTGGGGCCAAAAGCCAAGGTTTAACAGACCCTAGTGGATTGGTTTCAAAACCTGAAATATTGTGGAACACACTCAGTACCTACTGATCTGGTAGTAATGCAAGCACTAGTTGTAAGGCCCACGAAGGATGCCCAGAAGGTACCTGTAGGGAACAAGAGACACTATAGATCTGATCTGGGGCTGGCTACCTCTATTTTGGTGAGTCAGTTAAAAAACGTCTAGTGGGCCAAACCCAGGGGGGACCCTGGTTTCCATTTATTTTACAAAGGCACT

Tested on: HEK293 cells
Assay type: cell-based, human
Details: luminescence from secreted Gluc in supernatant 24 hours after transfection of HEK293 cells; circular RNA encoding Gluc with the named IRES (UTR truncated to 675 nt)

Row | Molecule | Expression
1 | B1 | 4.96E+05
2 | B2 | 6.56E+05
3 | B3 | 3.10E+05
4 | B4 | 1.24E+06
5 | B5 | 2.00E+06
6 | B6 | 1.80E+07
7 | B7 | 3.58E+06
8 | B8 | 1.61E+07
9 | B9 | 1.20E+06
